We go through 19 molecules from patent US6084068, “Elongin A and C functional domains” (Oklahoma Medical Research Foundation, dated 2000).

In assay [1] the target is wild type Elongin B (rat, UniProt P62870). Put plainly: refolded with wild type Elongin B; TSK DEAE-NPR HPLC, SDS-PAGE, silver staining. The method, then:
Figure 10A: FIG. 10A. […] Aliquots of the indicated column fractions were analyzed by SDS-PAGE, and proteins were visualized by silver staining. Figure 10B: FIG. 10B. N-terminal, C-terminal, and internal Elongin C deletion mutants were assayed for their abilities to form Elongin BC complexes as described.
~6 µg of Elongin B was mixed with ~6 µg of either wild type or mutant Elongin C and diluted 5-fold with 40 mM Hepes-NaOH (pH 7.9), 100 mM KCl, 2 mM DTT, 50 µM ZnSO_4, 0.1 mM EDTA, and 10% (v/v) glycerol. After incubation for 90 min on ice, the mixtures were dialyzed at 4° C. overnight against 40 mM Tris-HCl (pH 7.9), 0.1 mM EDTA, 10% (v/v) glycerol, and 40 mM KCl. Following dialysis, the mixtures were centrifuged at 60,000×g for 15 min at 4° C. The resulting supernatants were applied to TSK DEAE-NPR columns (35 mm×4.6 mm, Toso-Haas) pre-equilibrated in 40 mM Tris-HCl (pH 7.9), 0.1 mM EDTA, 1 mM DTT, 10% (v/v) glycerol, and 40 mM KCl and fractionated using a SMART microchromatography system (Pharmacia) at 8° C. The columns were eluted at 0.3 ml/min with a 3 ml linear gradient from 0.04 to 0.5M KCl in 40 mM Tris-HCl (pH 7.9), 0.1 mM EDTA, 1 mM DTT, and 10% (v/v) glycerol. Aliquots of each column fraction were analyzed by 10% Tris-Tricine SDS-polyacrylamide gel electrophoresis, and the proteins were visualized by silver staining.

For assay [2], the target named is T1, Elongin BC complex (wild type rat Elongin B and C) (rat, UniProt P62870).
T1 chain 1: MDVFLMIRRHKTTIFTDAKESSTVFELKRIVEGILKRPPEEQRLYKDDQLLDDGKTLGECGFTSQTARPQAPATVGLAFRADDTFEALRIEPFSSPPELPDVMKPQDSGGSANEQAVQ
T1 chain 2: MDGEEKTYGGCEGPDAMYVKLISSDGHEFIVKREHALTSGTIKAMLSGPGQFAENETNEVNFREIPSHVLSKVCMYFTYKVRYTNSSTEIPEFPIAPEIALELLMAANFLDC
Put plainly: refolded with rat Elongin B and C; TSK SP-NPR HPLC, SDS-PAGE, silver staining. The procedure: Figure 8A: FIG. 8A. Analysis of wild type and mutant C. elegans Elongin A wherein wild type or mutant C. elegans Elongin A was refolded with rat Elongin B and C and subjected to TSK SP-NPR HPLC as described. Aliquots of the peak column fractions were analyzed by SDS-PAGE, and proteins were visualized by silver staining. WT C.e. […] Figure 8B: FIG. 8B. ~2 pmol of human or C. elegans Elongin A proteins were refolded as described (Bradsher, et al., *J Biol Chem* 268: 25587–25593 (1993)) in the presence or absence of ~2 pmol of rat Elongin B and C. Aliquots of refolded protein were assayed for transcriptional activity in oligo dc-tailed template assays performed as described. Reaction mixtures contained no Elongin (lane 1); 3 and 9 μl of renatured human Elongin A without (lanes 2 and 3) or with (lanes 4 and 5) Elongin B and C; 3 and 9 μl of renatured wild type C. elegans Elongin A without (lanes 6 and 7) or with (lanes 8 and 9) Elongin B and C; 3 and 9 μl of renatured C.e. EloA(94–434) (SEQ ID NO:44) without (lanes 10 and 11) or with (lanes 12 and 13) Elongin B and C; 3 and 9 μl of renatured C.e. EloA (202–434) (SEQ ID NO:45) with (lanes 14 and 15) or without (lanes 16, and 17) Elongin B and C.

The target in assay [3] is T2, wild type Elongin A (rat).
T2 chain: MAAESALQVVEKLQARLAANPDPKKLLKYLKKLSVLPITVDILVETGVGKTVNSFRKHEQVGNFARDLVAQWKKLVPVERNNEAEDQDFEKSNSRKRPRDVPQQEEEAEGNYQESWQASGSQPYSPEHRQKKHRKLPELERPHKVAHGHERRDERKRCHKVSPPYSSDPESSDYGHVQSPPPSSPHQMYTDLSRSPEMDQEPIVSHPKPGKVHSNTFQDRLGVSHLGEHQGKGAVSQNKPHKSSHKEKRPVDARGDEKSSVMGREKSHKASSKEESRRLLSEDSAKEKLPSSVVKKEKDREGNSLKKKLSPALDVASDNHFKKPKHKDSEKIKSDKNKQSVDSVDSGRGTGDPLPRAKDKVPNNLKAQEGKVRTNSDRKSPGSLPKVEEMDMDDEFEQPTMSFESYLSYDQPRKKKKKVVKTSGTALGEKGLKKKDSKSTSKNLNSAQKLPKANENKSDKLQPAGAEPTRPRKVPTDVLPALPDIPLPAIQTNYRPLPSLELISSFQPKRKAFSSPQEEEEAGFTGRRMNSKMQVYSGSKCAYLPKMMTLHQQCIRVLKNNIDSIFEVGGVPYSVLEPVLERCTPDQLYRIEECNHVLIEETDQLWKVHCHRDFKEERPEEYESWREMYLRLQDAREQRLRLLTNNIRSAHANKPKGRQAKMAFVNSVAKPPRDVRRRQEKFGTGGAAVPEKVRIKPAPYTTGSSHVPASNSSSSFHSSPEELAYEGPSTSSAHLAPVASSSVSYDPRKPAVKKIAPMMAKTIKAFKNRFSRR
Briefly: refolded with wild type Elongin A and B; TSK SP-NPR HPLC, SDS-PAGE, silver staining.

Positions count from the first letter of the chain named.

B1: Elongin C internal deletion mutant C(Δ71-80) (other)
chain: MDGEEKTYGGCEGPDAMYVKLISSDGHEFIVKREHALTSGTIKAMLSGPGQFAENETNEVNFREIPSHVLVRYTNSSTEIPEFPIAPEIALELLMAANFLDC
Consider B1, for which, in assay [1], the binding result is on record as “binds”.

B2: Elongin C internal deletion mutant C(Δ81-90) (other)
chain: B1 chain with V71S, R72K, Y73V, T74C, N75M, S76Y, S77F, E79Y, I80K
B2: in assay [1], the binding result was “binds”.

B3: wild type C. elegans Elongin A (other)
chain: MPETDEEKVRRYTECLMNGIDPKRALKRLYDLNVSPEVFKSADTVQCVKRYESSPELAKYAKRVRDKLLGGRKREKGGGEDDADIEHTALKKAKKEEVNLDEEFAEAMKSGVSAQASSAPRATVDYSKYKVVKRVEVKVEPKPEPVDVHEQQASSSSMSYQREHQKDYAPVVPTCKPSGQPKKAIPQSKSLHADENMFKPRKERQKVFAGRRKRVGEGVSTLVSLCQTVLMSHIDMIDHVGIVPFDLLKPVLDHASTDQLRHILDVNPMLVEDADEMFHEMVSREFPKYANREKSGWTWREMYDRLVEKKQKKENDKLEMLTSRIGKSNSAQSQGRQTMVIDMAHTRVRSKSFFNTVKDSQVKMSATPSALQLSQARKNVKIEGKAQLRTITPRGGGVPSTSRSRSNNNNNMNNGLVVKKTAPLMAKCKKMLKR
Regarding B3, the binding result in assay [2] is “binds”.

B4: Elongin C deletion mutant C(1-97) (other)
chain: MDGEEKTYGGCEGPDAMYVKLISSDGHEFIVKREHALTSGTIKAMLSGPGQFAENETNEVNFREIPSHVLSKVCMYFTYKVRYTNSSTEIPEFPIAP
For the molecule B4, the binding result in assay [1] was “binds”.

B5: Elongin C internal deletion mutant C(Δ51-60) (other)
chain: MDGEEKTYGGCEGPDAMYVKLISSDGHEFIVKREHALTSGTIKAMLSGPGNFREIPSHVLSKVCMYFTYKVRYTNSSTEIPEFPIAPEIALELLMAANFLDC
With B5, in assay [1], the binding result was “binds”.

B6: Elongin C internal deletion mutant C(Δ61-70) (other)
chain: B5 chain with N51Q, R53A, I55N, P56E, S57T, H58N, V59E, L60V
In the case of B6, in assay [1], the binding result was “binds”.

B7: Elongin C deletion mutant C(19-112) (other)
chain: VKLISSDGHEFIVKREHALTSGTIKAMLSGPGQFAENETNEVNFREIPSHVLSKVCMYFTYKVRYTNSSTEIPEFPIAPEIALELLMAANFLDC
Regarding B7, in assay [1], the binding result is listed as “binds”.

B8: Elongin C alanine scanning mutant C(Ala19-21) (other)
chain: T1 chain 2 with V19A, K20A, L21A
As to B8, in assay [1], the binding result was “binds”.

B9: Elongin C alanine scanning mutant C(Ala28-30) (other)
chain: T1 chain 2 with E28A, F29A, I30A
Take B9: the binding result in assay [1] was “no binding”.

B10: Elongin C alanine scanning mutant C(Ala22-24) (other)
chain: T1 chain 2 with I22A, S23A, S24A
Take B10: the binding result in assay [1] is “binds”.

B11: Elongin C alanine scanning mutant C(Ala25-27) (other)
chain: T1 chain 2 with D25A, G26A, H27A
With B11, the binding result in assay [1] is “no binding”.

B12: Elongin C deletion mutant C(1-83) (other)
chain: MDGEEKTYGGCEGPDAMYVKLISSDGHEFIVKREHALTSGTIKAMLSGPGQFAENETNEVNFREIPSHVLSKVCMYFTYKVRY
On to B12, for which the binding result in assay [1] is on record as “binds”.

B13: C. elegans Elongin A mutant C.e.EloA(202-434) (other)
chain: KERQKVFAGRRKRVGEGVSTLVSLCQTVLMSHIDMIDHVGIVPFDLLKPVLDHASTDQLRHILDVNPMLVEDADEMFHEMVSREFPKYANREKSGWTWREMYDRLVEKKQKKENDKLEMLTSRIGKSNSAQSQGRQTMVIDMAHTRVRSKSFFNTVKDSQVKMSATPSALQLSQARKNVKIEGKAQLRTITPRGGGVPSTSRSRSNNNNNMNNGLVVKKTAPLMAKCKKMLKR
For the molecule B13, the binding result in assay [2] is recorded as “binds”.

B14: Elongin C deletion mutant C(15-112) (other)
chain: DAMYVKLISSDGHEFIVKREHALTSGTIKAMLSGPGQFAENETNEVNFREIPSHVLSKVCMYFTYKVRYTNSSTEIPEFPIAPEIALELLMAANFLDC
For B14, in assay [1], the binding result was “binds”.

B15: Elongin C internal deletion mutant C(Δ31-40) (other)
chain: MDGEEKTYGGCEGPDAMYVKLISSDGHEFITIKAMLSGPGQFAENETNEVNFREIPSHVLSKVCMYFTYKVRYTNSSTEIPEFPIAPEIALELLMAANFLDC
For the molecule B15, the binding result in assay [1] is given as “binds”.

B16: Elongin C internal deletion mutant C(Δ21-30) (other)
chain: B15 chain with L21V, I22K, S23R, S24E, D25H, G26A, H27L, E28T, F29S, I30G
With B16, the binding result in assay [3] and in assay [1] was “no binding” each time.

B17: Elongin C internal deletion mutant C(Δ41-50) (other)
chain: B15 chain with T31V, I32K, K33R, A34E, M35H, L36A, S37L, G38T, P39S
Consider B17, for which the binding result in assay [1] is on record as “binds”.

B18: Elongin C deletion mutant C(23-112) (other)
chain: SSDGHEFIVKREHALTSGTIKAMLSGPGQFAENETNEVNFREIPSHVLSKVCMYFTYKVRYTNSSTEIPEFPIAPEIALELLMAANFLDC
Regarding B18, the binding result in assay [1] was “no binding”.

B19: Elongin C internal deletion mutant C(Δ91-100) (other)
chain: MDGEEKTYGGCEGPDAMYVKLISSDGHEFIVKREHALTSGTIKAMLSGPGQFAENETNEVNFREIPSHVLSKVCMYFTYKVRYTNSSTEILELLMAANFLDC
On to B19, for which the binding result in assay [1] was “binds”.
